From article doi:10.1101/2023.05.26.542399

Biological target: Arabidopsis thaliana PAXX (AtPAXX), full length, untagged (Arabidopsis thaliana)
Assay: crystal structure

Arabidopsis thaliana PAXX (AtPAXX), full length, untagged (natural protein)
stoichiometry N: 2
